T1: recombinant human CD39 (human, UniProt P49961 38-478)
T1 chain: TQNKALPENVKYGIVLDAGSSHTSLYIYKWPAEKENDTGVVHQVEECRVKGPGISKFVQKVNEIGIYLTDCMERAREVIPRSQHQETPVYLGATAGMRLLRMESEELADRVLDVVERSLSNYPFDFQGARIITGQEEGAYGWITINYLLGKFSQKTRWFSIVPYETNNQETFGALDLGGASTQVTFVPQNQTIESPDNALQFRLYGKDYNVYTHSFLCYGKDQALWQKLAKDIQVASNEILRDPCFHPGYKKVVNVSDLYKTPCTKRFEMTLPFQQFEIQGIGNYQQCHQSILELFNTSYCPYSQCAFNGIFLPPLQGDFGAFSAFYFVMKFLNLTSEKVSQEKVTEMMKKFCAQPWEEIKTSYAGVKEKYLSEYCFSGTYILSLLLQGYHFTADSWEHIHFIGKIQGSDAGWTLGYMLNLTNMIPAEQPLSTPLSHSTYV

B1: Clone #19 (antibody, V domains shown)
VH: EVQLVESGGGLVQPGGSLRLSCAASGFTFRSYWMSWVRQAPGKGLEWVATIKQDGSEKFYVDSVKGRFTISRDNAKNSLYLQMNSLRAEDTAVYYCARDFTRWSHVNWFDPWGQGTLVTVSS
VL: EIVMTQSPATLSVSPGERATLSCRASQSVSSSLAWYQQKPGQAPRLLIFGASTRATGIPARFSGSGSGTEFTLTISSLQSEDFAVYYCQQYYHHPYTFGGGTKVEIK
B2: Clone #6 (antibody, V domains shown)
VH: EVQLVESGGGLVQPGGSLRLSCAASGFTFSSYGMSWVRQAPGKGLEWVANIKQDGSEKYYVDSVKGRFTISRDNAKNSLYLQMNSLRAEDTAVYYCARDFTRWSHVNWFDPWGQGTLVTVSS
VL: EIVMTQSPATLSVSPGERATLSCRASQSVSSSLAWYQQKPGQAPRLLIFGASTRATGIPARFSGSGSGTEFTLTISSLQSEDFAVYYCQQYYHHPYTFGGGTKVEIK
B3: Clone #3 (antibody, V domains shown)
VH: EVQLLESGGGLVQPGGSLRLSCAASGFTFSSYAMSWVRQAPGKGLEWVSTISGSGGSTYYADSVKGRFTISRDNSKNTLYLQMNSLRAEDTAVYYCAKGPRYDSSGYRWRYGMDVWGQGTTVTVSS
VL: DIQMTQSPSSLSASVGDRVTITCRASQSISSYLNWYQQKPGKAPKLLIYAASSLQSGVPSRFSGSGSGTDFTLTISSLQPEDFATYYCQQLYVDPPWTFGGGTKVEIK
B4: Clone #10 (antibody, V domains shown)
VH: QVQLVQSGAEVKKPGSSVKVSCKASGGTFSNYAISWVRQAPGQGLEWMGGIIPIFGTANYAQKFQGRVTITADESTSTAYMELSSLRSEDTAVYYCARPRGDYSGYDAGPIDYWGQGTLVTVSS
VL: EIVLTQSPATLSLSPGERATLSCRASQSVSSYLAWYQQKPGQAPRLLIYDASNRATGIPARFSGSGSGTDFTLTISSLEPEDFAVYYCQQRFHFPPTFGGGTKVEIK
B5: Clone #8 (antibody, V domains shown)
VH: QLQLQESGPGLVKPSETLSLTCTVSGGSISSSSYYWGWIRQPPGKGLEWIGSIYYSGSTYYNPSLKSRVTISVDTSKNQFSLKLSSVTAADTAVYYCARGSPTYHDFDLWGRGTLVTVSS
VL: EIVLTQSPATLSLSPGERATLSCRASQSVSSYLAWYQQKPGQAPRLLIYDASNRATGIPARFSGSGSGTDFTLTISSLEPEDFAVYYCQQRAIWPPTFGGGTKVEIK
B6: Clone #2 (antibody, V domains shown)
VH: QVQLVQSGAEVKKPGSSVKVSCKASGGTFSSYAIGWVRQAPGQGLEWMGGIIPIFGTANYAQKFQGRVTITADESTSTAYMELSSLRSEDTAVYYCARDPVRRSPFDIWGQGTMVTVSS
VL: EIVLTQSPATLSLSPGERATLSCRASQSVSSYLAWYQQKPGQAPRLLIYDSSNRATGIPARFSGSGSGTDFTLTISSLEPEDFAVYYCQQSFLWPRTFGGGTKVEIK
B7: Clone #16 (antibody, V domains shown)
VH: QVQLVQSGAEVKKPGSSVKVSCKASGGTFSSNAIGWVRQAPGQGLEWMGGIIPAFGTANYAQKFQGRVTITADESTSTAYMELSSLRSEDTAVYYCARDPVRRSPFDIWGQGTMVTVSS
VL: EIVLTQSPATLSLSPGERATLSCRASQSVSSYLAWYQQKPGQAPRLLIYDSSNRATGIPARFSGSGSGTDFTLTISSLEPEDFAVYYCQQSFLWPRTFGGGTKVEIK
B8: Clone #11 (antibody, V domains shown)
VH: QVQLVQSGAEVKKPGSSVKVSCKASGGTFSNYAISWVRQAPGQGLEWMGGIIPIFGTANYAQKFQGRVTITADESTSTAYMELSSLRSEDTAVYYCARPRGDYSGYDAGPIDYWGQGTLVTVSS
VL: EIVMTQSPATLSLSPGERATLSCRASQSVSSYLAWYQQKPGQAPRLLIYDSSNRATGIPARFSGSGSGTDFTLTISSLEPEDFAVYYCQQRYLFPITFGGGTKVEIK
B9: Clone #12 (antibody, V domains shown)
VH: EVQLVESGGGLVQPGGSLRLSCAASGFTFSSYYMQWVRQAPGKGLEWVSYISSSSSTIGYADSVKGRFTISRDNAKNSLYLQMNSLRAEDTAVYYCAKGPRYDSSGYRWRYGMDVWGQGTTVTVSS
VL: DIQMTQSPSSLSASVGDRVTITCRASQSISSYLNWYQQKPGKAPKLLIYAASSLQSGVPSRFSGSGSGTDFTLTISSLQPEDFATYYCQQLALTPYTFGGGTKVEIK
B10: Clone #4 (antibody, V domains shown)
VH: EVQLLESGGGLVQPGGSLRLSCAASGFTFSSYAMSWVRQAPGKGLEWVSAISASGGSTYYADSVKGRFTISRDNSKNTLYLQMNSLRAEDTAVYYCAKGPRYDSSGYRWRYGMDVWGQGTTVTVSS
VL: DIQMTQSPSSLSASVGDRVTITCRASQSISSYLNWYQQKPGKAPKLLIYAASSLQSGVPSRFSGSGSGTDFTLTISSLQPEDFATYYCQQLALTPYTFGGGTKVEIK
B11: Clone #7 (antibody, V domains shown)
VH: QVQLQESGPGLVKPSETLSLTCAVSGYSISSGYYWAWIRQPPGKGLEWIGSIYHSGSTYYNPSLKSRVTISVDTSKNQFSLKLSSVTAADTAVYYCARGAGHRQFAFDIWGQGTMVTVSS
VL: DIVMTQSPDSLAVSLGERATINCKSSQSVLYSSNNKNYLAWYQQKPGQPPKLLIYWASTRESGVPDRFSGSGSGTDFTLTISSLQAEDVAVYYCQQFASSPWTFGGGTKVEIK
B12: Clone #9 (antibody, V domains shown)
VH: QVQLQESGPGLVKPSETLSLTCAVSGYSISSGYYWAWIRQPPGKGLEWIGSIYHSGSTYYNPSLKSRVTISVDTSKNQFSLKLSSVTAADTAVYYCARGAGHRQFAFDIWGQGTMVTVSS
VL: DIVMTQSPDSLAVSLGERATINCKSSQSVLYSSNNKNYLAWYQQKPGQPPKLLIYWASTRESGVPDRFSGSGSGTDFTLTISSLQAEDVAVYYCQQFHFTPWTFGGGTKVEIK

The target of this assay is T1, recombinant human CD39. Put plainly: BLI (ForteBio); IgG, monovalent. (In general: Biolayer interferometry detects binding as a change in optical thickness at a sensor tip.)
As a reminder, the Kd is the equilibrium constant for the complex coming apart. With B1, the Kd came out at 28.3 nM.

For the molecule B2, the Kd is 177 nM.

On to B3, for which the Kd came to 3.25 nM.

As to B4, the Kd turned out to be 37.3 nM.

With B5, the Kd is 28.3 nM.

With B6, the Kd turned out to be 11.6 nM.

For B7, the dissociation constant (Kd) is 3.81 nM.

Regarding B8, the Kd came out at 14.7 nM.

Take B9: the dissociation constant Kd worked out at 1.38 nM.

As for B10, the dissociation constant (Kd) was found to be 3.65 nM.

B11: the equilibrium dissociation constant (Kd) is 94.3 nM.

Take B12: the dissociation constant (Kd) was determined as 124 nM.

The values are drawn from patent US20220372160A1 (published 2022).
